Data: patent US20240254229A1 (Molecular Partners, published 2024)

Legend:
[1] = molecular target: T1, Molm-13 N1 tumor cells (carrying CD123, CD33 and CD70) (human, UniProt P20138 18-364; P26951 19-378; P32970 1-193); test: flow cytometry on Molm-13 N1 cells, 20 uM HSA
T1 construct: whole, on cells; Not a complex: three separate antigens on one cell; also called Molm-13 N1 cells
Protocol: The determination of binding of several multispecific proteins to tumor cells was performed by Fluorescence Activated Cell Sorting (FACS) flow cytometry. Therefore, tumor cells (Molm-13 N1), were seeded at 100′000 cells per well in a 96 well plate. DARPin® protein #56, DARPin® protein #57, DARPin® protein #58, DARPin® protein #59, DARPin® protein #60, DARPin® protein #61 and DARPin® protein #62 were titrated down starting at 100 nM in 1:5 dilution ratio. Tumor cells were resuspended with diluted DARPin® proteins and incubated 60 minutes at 4° C. The assay was performed in PBS including 2% fetal bovine serum and human serum albumin 20 uM (HSA). After washing twice with Phosphate Buffer saline (PBS), DARPin® protein specific tumor cell binding was detected by adding unlabelled primary […] (anti-rabbit 1-1-1 antibody, CePower) at 2 ug/ml. An incubation step of at least 30 minutes at 4° C. followed. Afterwards, cells were washed with PBS and a secondary anti-rabbit antibody labelled with Alexa Fluor 647 antibody (ThermoFisher) at 2 ug/ml was added. The same incubation conditions applied. Finally, the cells were washed twice and resuspended in Cytofix fixation buffer (BD Biosciences) for 15 min at room temperature (RT). Median fluorescence intensities (MFI) of Alexa Fluor 647 DARPin® labelled cells were measured by Attune NxT (Thermo Fisher) using FlowJo software for analyses and GraphPad Prism 8 for data plotting.

[2] = molecular target: T2, biotinylated extracellular domain of human CD123 (SEQ ID NO: 88), Fc and Avi tagged (human, UniProt P26951 19-303, biotinylated with BirA-GST (Avi tag)); test: SPR (ProteOn XPR36), target on GLC chip
T2 construct: also called hCD123
T2 sequence: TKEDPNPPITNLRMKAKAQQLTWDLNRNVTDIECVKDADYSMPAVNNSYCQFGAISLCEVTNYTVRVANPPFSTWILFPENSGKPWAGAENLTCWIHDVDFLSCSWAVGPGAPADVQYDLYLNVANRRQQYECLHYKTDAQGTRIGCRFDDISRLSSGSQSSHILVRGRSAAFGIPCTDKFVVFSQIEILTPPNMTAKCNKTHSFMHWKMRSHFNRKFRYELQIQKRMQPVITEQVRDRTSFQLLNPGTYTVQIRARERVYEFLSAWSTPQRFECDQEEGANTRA
Text: (§1) For that, DARPin® protein #27, DARPin® protein #29, DARPin® protein #47 and DARPin® protein #48 and DARPin® protein #49, DARPin® protein #50, DARPin® protein #51, DARPin® protein #52, DARPin® protein #31, DARPin® protein #53, DARPin® protein #54, DARPin® protein #55, DARPin® protein #34, DARPin® protein #33, DARPin® protein #39 and DARPin® protein #36 were subcloned and expressed as described above into derivatives of the pQE30 (Qiagen) expression vector, containing an N-terminal His-tag, CD33, CD123 and/or CD70 binding ankyrin repeat domains, followed by a CD3 specific ankyrin repeat domain and for some constructs by a human serum albumin specific ankyrin repeat domain.
(§2) Briefly, biotinylated human CD70, CD123 and CD33 was diluted in PBST (PBS, pH 7.4 containing 0.005% Tween 20®) and coated on a GLC chip (BioRad) to a level of around 200, 460 and 450 resonance units (RU) respectively. HSA in NaOAc pH 5.0 was directly immobilized on the GLC chip to a level of 800 RU. Bio.CD70, bio. CD33 and bio. CD123 required to have Neutravidin coated first to a level of 6000 RU before the biotinylated targets could be applied. The interaction of the selected ankyrin repeat proteins and human CD70, CD123 and CD33 was then measured by injecting 300 μl running buffer (PBS, pH 7.4 containing 0.005% Tween 20®) containing serial dilutions of ankyrin repeat proteins covering a concentration range between 100 nM and 2.6 nM (100, 40, 16, 6.4 and 2.6 nM respectively) for multi-trace SPR measurements, with an association of 120 s and dissociation of 1200 s using a constant flow of 100 μl/min. The regeneration was performed using 30 μl of 4 mM Glycine pH 2. The signals (i.e. resonance unit (RU) values) of the interspots and a reference injection (i.e. injection of running buffer only) were subtracted from the RU traces obtained after injection of ankyrin repeat protein (double-referencing).

[3] = molecular target: T3, extracellular domain of human CD70 (SEQ ID NO: 89), hCD70-Fc-trimer, ACRO Biosystems (human, UniProt P32970 52-193, chemically biotinylated where the biotinylated form was used); test: SPR (ProteOn XPR36), target on GLC chip, DARPin as analyte
T3 construct: also called human CD70-Fc-trimer; Bio.CD70
T3 sequence: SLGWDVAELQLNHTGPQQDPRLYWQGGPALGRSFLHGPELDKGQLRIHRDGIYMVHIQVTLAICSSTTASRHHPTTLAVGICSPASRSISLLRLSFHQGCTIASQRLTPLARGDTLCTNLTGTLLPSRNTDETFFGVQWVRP
Text: as §1, §2

[4] = molecular target: T4, biotinylated extracellular domain of human CD33 (SEQ ID NO: 87), Fc and Avi tagged (human, UniProt P20138 18-259, biotinylated with BirA-GST (Avi tag)); test: as above
T4 construct: also called hCD33; human target hCD33
T4 sequence (P20138 18-259 R69G): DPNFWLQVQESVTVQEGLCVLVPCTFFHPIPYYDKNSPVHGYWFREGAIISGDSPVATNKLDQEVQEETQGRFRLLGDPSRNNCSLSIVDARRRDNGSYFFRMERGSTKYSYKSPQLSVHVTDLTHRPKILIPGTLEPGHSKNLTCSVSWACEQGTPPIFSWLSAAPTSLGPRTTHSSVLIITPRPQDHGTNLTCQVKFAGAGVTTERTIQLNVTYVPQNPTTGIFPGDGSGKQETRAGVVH
Text: as §1, §2

human serum albumin = molecular target: T5, human serum albumin (human, UniProt P02768 25-609); test: as above
T5 construct: also called HSA; SA
T5 sequence (P02768 25-609 limits assumed): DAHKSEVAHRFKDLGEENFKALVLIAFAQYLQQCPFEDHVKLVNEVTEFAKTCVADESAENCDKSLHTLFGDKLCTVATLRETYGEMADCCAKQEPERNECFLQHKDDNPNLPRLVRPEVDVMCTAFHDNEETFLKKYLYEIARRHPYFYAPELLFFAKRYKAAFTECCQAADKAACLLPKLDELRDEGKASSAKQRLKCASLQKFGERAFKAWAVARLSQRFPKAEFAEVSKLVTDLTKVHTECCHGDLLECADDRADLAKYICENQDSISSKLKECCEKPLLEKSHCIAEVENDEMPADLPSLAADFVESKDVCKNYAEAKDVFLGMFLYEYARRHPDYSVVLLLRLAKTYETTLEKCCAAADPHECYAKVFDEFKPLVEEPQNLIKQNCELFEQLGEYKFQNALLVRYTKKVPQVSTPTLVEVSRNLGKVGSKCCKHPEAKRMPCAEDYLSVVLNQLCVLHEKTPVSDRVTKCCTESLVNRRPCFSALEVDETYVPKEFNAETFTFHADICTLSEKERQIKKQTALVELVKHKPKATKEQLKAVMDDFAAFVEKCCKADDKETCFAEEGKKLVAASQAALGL
Text: as §1, §2

T1 sequence (P20138 18-364, one chain of several): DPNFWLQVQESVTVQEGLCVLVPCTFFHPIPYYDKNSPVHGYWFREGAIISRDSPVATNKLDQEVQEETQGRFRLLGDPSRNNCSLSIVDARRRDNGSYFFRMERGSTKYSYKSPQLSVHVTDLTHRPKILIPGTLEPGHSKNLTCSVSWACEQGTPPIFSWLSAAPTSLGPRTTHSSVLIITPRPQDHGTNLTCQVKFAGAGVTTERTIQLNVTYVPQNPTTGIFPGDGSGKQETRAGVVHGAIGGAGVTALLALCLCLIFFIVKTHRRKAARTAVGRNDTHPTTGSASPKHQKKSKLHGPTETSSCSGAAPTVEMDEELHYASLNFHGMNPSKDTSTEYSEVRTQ

B1: DARPin® protein #62 (designed binder)
chain: DLGKKLLEAARAGQDDEVRELLKAGADVNAKDYFSHTPLHLAARNGHLKIVEVLLKAGADVNAKDFAGKTPLHLAAADGHLEIVEVLLKAGADVNAQDIFGKTPADIAADAGHEDIAEVLQKAAGSPTPTPTTPTPTPTTPTPTPTGSDLGKKLLEAARAGQDDEVRELLKAGADVNAKDYFSHTPLHLAARNGHLKIVEVLLKAGADVNAKDFAGKTPLHLAAADGHLEIVEVLLKAGADVNAQDIFGKTPADIAADAGHEDIAEVLQKAAGSPTPTPTTPTPTPTTPTPTPTGSDLGIKLLTAAYDGQLDEVRILLKAGADVNAKDLRGQTPLHYAAGLGHLEIVEVLLKAGADVNAKDLHGWTPLHLAAWSGHLEIVEVLLKAGADVNAQDVEGVTPADLAAVQGHQDIAEVLQKAAGSPTPTPTTPTPTPTTPTPTPTGSDLGVKLLLAAERGQLDEVRILLKAGADVNAKDIAEGYTPLHIAAYQGHLEIVEVLLKAGADVNAKDRYGKTPLHLAAIGGHLEIVEVLLKAGADVNAQDNKGSTPADLAADYGHQDIAEVLQKAAGSPTPTPTTPTPTPTTPTPTPTGSDLGKKLLEAALEGQLDEVRELLKAGADVNAKDQEGYTPLHLAAALGHLEIVEVLLKAGADVNAKDQIGRTPLHLAAYKGHLEIVEVLLKAGADVNAQDIIGQTPADLAAQRGHQDIAEVLQKAAGSPTPTPTTPTPTPTTPTPTPTGSDLGQKLLEAAWAGQDDEVRELLKAGADVNAKNSRGWTPLHTAAQTGHLEIFEVLLKAGADVNAKNDKRVTPLHLAAALGHLEIVEVLLKAGADVNARDSWGTTPADLAAKYGHQDIAEVLQKAA
notes: HSA-HSA-CD70-CD33-CD123-CD3
B1 was tested, and the EC50 [1] was 0.36 nM.

B2: DARPin® protein #51 (designed binder)
chain: MRGSHHHHHHDLGKKLLEAARAGQDDEVRELLKAGADVNAKDYFSHTPLHLAARNGHLKIVEVLLKAGADVNAKDFAGKTPLHLAAADGHLEIVEVLLKAGADVNAQDIFGKTPADIAADAGHEDIAEVLQKAAGSPTPTPTTPTPTPTTPTPTPTGSDLGKKLLEAARAGQDDEVRELLKAGADVNAKDYFSHTPLHLAARNGHLKIVEVLLKAGADVNAKDFAGKTPLHLAAADGHLEIVEVLLKAGADVNAQDIFGKTPADIAADAGHEDIAEVLQKAAGSPTPTPTTPTPTPTTPTPTPTGSDLGYKLLQAAYDGQLDEVRILLKAGADVNAKDSRGQTPLHYAASIGHLEIVEVLLKAGADVNAKDDHGWTPLHLAAWSGHLEIVEVLLKAGADVNAQDQEGTTPADLAAVQGHQDIAEVLQKAAGSPTPTPTTPTPTPTTPTPTPTGSDLGVKLLLAASRGQLDEVRILLKAGADVNAKDIDEGYTPLHIAAYYGHLEIVEVLLKAGADVNAKDRYGKTPLHLAAISGHLEIVEVLLKAGADVNAQDDKGDTPADLAADYGHQDIAEVLQKAAGSPTPTPTTPTPTPTTPTPTPTGSDLGQKLLEAAWAGQDDEVRELLKAGADVNAKNSRGWTPLHTAAQTGHLEIFEVLLKAGADVNAKDDKGVTPLHLAAALGHLEIVEVLLKAGADVNAQDSWGTTPADLAAKYGHEDIAEVLQKAA
notes: HSA-HSA-CD70-CD33-CD3
With B2 the binding result [2] was “no binding (tested: 100 nM (highest concentration))”, the Kd [3] was 0.56 nM and the Kd [4] was 5.5 nM. For the same binder, the Kd (human serum albumin) was 1.3 nM.

B3: DARPin® protein #61 (designed binder)
chain: DLGKKLLEAARAGQDDEVRELLKAGADVNAKDYFSHTPLHLAARNGHLKIVEVLLKAGADVNAKDFAGKTPLHLAAADGHLEIVEVLLKAGADVNAQDIFGKTPADIAADAGHEDIAEVLQKAAGSPTPTPTTPTPTPTTPTPTPTGSDLGKKLLEAARAGQDDEVRELLKAGADVNAKDYFSHTPLHLAARNGHLKIVEVLLKAGADVNAKDFAGKTPLHLAAADGHLEIVEVLLKAGADVNAQDIFGKTPADIAADAGHEDIAEVLQKAAGSPTPTPTTPTPTPTTPTPTPTGSDLGKKLLQAARAGQLDEVRELLKAGADVNAKDQQGLTPLHIAANLGHLEIVEVLLKAGADVNAKDLFGLTPLHLAAFEGHLEIVEVLLKAGADVNAKDQHGATPLHLAAWVGHLEIVEVLLKAGADVNAQDKSGKTPADLAARAGHQDIAEVLQKAAGSPTPTPTTPTPTPTTPTPTPTGSDLGKKLLQAALEGQLDEVRELLKAGADVNAKDIEGYTPLHLAAALGHLEIVEVLLKAGADVNAKDQIGRTPLHLAAYKGHLEIVEVLLKAGADVNAQDIIGQTPADLAAQRGHQDIAEVLQKAAGSPTPTPTTPTPTPTTPTPTPTGSDLGKKLLLAAERGQLDEVRILLKAGADVNAKDRAEGYTPLHIAAYQGHLEIVEVLLKAGADVNAKDRYGKTPLHLAAISGHLEIVEVLLKAGADVNAQDNKGSTPADLAADYGHQDIAEVLQKAAGSPTGSDLGQKLLEAAWAGQDDEVRELLKAGADVNAKNSRGWTPLHTAAQTGHLEIFEVLLKAGADVNAKNDKRVTPLHLAAALGHLEIVEVLLKAGADVNARDSWGTTPADLAAKYGHQDIAEVLQKAA
notes: HSA-HSA-CD70-CD123-CD33-CD3
Work on B3 yielded an EC50 [1] of 0.13 nM.

B4: DARPin® protein #50 (designed binder)
chain: MRGSHHHHHHDLGKKLLEAARAGQDDEVRELLKAGADVNAKDYFSHTPLHLAARNGHLKIVEVLLKAGADVNAKDFAGKTPLHLAAADGHLEIVEVLLKAGADVNAQDIFGKTPADIAADAGHEDIAEVLQKAAGSPTPTPTTPTPTPTTPTPTPTGSDLGYKLLQAAYDGQLDEVRILLKAGADVNAKDSRGQTPLHYAASIGHLEIVEVLLKAGADVNAKDDHGWTPLHLAAWSGHLEIVEVLLKAGADVNAQDQEGTTPADLAAVQGHQDIAEVLQKAAGSPTPTPTTPTPTPTTPTPTPTGSDLGVKLLLAASRGQLDEVRILLKAGADVNAKDIDEGYTPLHIAAYYGHLEIVEVLLKAGADVNAKDRYGKTPLHLAAISGHLEIVEVLLKAGADVNAQDDKGDTPADLAADYGHQDIAEVLQKAAGSPTPTPTTPTPTPTTPTPTPTGSDLGQKLLEAAWAGQDDEVRELLKAGADVNAKNSRGWTPLHTAAQTGHLEIFEVLLKAGADVNAKDDKGVTPLHLAAALGHLEIVEVLLKAGADVNAQDSWGTTPADLAAKYGHEDIAEVLQKAA
notes: HSA-CD70-CD33-CD3
B4 was tested, and the binding result [2] was “no binding (tested: 100 nM (highest concentration))”, the Kd [3] was 0.81 nM and the Kd [4] was 7.5 nM. It also gave a Kd (human serum albumin) of 24 nM.
